Measurements as given in patent US9988424 (DUKE UNIVERSITY, dated 2018).

What was measured:
Experiment in all cases: ELISA, OD405 at 10 ug/ml
A.Q23 V1V2 tags = A.Q23 V1V2 tags (HIV-1)
AE.97CNG2XF gp140CF = biological target: T1, AE.97CNG2XF gp140CF (HIV-1)
T1 construct: also called E.97CNGX2F gp140CF

A.9004SS V1/V2 tags = biological target: T2, A.9004SS V1/V2 tags
T2 V1V2 tags construct: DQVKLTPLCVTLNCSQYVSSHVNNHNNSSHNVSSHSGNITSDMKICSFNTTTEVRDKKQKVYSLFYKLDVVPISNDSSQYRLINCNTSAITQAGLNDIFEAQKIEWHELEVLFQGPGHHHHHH

D.9009SA V1/V2 tags = biological target: D.9009SA V1/V2 tags
B.62357 gp140C = biological target: T3, B.62357 gp140C
T3 construct: also called B.62357 140C

B.HXB/BAL gp140CFI = biological target: T4, B.HXB/BAL gp140CFI (HIV-1, UniProt P04578 33-680)
T4 construct: also called B.HxB/Ba gp140 CFI

G.con gp140CF = biological target: G.con gp140CF
B.9021 gp140C = B.9021 gp140C (HIV-1)
Con 6 gp120 = biological target: Con 6 gp120
AE.A244 gp120 delta 11 = biological target: T5, AE.A244 gp120 delta 11 (HIV-1)
T5 construct: also called E.A244gp120Δ11; AE.A244 Δ11 gp120

AE.A244 V1V2 Tags = AE.A244 V1V2 Tags (HIV-1)
gp70 B.CaseA2 V1/V2 = biological target: T6, gp70 B.CaseA2 V1/V2 (HIV-1 V1V2 on murine leukemia virus gp70)
T6 construct: also called B.gp70CaseA2 V1/V2; gp70 B.CaseAV1V2
T6 chain: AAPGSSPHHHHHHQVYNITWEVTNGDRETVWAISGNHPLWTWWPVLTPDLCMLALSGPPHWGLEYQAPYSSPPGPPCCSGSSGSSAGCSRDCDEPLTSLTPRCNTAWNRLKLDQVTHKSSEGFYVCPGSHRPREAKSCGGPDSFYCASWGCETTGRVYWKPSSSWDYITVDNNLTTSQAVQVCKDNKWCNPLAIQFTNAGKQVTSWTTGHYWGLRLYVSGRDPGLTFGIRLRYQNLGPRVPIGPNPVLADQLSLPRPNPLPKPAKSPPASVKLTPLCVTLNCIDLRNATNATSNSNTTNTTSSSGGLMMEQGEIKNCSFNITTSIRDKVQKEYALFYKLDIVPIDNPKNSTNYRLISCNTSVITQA

gp70 C.1086 V1/V2 = biological target: T7, gp70 C.1086 V1/V2 (HIV-1 V1V2 on murine leukemia virus gp70)
T7 construct: also called C.gp70 1086C V1V2; C.1086gp70V1V2
T7 chain: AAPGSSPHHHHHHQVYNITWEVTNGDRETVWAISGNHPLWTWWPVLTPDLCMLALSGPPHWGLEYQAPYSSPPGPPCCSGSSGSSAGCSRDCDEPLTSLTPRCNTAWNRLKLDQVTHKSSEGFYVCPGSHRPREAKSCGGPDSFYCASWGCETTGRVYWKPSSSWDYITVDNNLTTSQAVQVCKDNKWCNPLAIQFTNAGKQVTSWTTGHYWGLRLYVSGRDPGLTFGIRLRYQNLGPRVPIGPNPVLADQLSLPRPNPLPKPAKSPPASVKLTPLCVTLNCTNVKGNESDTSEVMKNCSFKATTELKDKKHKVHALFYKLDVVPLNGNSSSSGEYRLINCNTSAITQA

AE.con gp140CF = biological target: AE.con gp140CF
C.1086 V1V2 Tags = C.1086 V1V2 Tags (HIV-1)
SIV CPZ US-1 gp140CF = biological target: T8, SIV CPZ US-1 gp140CF (SIVcpz)
T8 construct: also called US-1 SIVCPZ gp140CF
T8 chain: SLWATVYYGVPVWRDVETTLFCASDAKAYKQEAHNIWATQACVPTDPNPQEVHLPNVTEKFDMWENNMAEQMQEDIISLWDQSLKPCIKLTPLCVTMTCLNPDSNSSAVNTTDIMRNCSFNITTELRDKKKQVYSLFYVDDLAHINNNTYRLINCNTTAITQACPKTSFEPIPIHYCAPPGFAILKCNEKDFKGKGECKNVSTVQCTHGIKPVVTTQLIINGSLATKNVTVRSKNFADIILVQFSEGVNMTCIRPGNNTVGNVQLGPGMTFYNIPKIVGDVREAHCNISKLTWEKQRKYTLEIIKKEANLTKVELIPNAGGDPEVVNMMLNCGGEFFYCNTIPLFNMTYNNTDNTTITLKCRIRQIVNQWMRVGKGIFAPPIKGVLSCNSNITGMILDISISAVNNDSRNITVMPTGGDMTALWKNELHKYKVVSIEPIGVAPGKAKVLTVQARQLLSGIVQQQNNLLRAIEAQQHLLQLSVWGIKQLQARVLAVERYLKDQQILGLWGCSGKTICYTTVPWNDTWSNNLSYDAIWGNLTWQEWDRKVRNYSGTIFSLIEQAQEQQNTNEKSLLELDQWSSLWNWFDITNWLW

B.040 gp140C = biological target: B.040 gp140C
B.Case A2 V1/V2 tags = biological target: B.Case A2 V1/V2 tags
B.63521_V1/V2 tags = biological target: B.63521_V1/V2 tags

Measured: binding result

B1: PG9 reverted unmutated ancestor antibody (antibody, V domains shown)
VH: QVQLVESGGGVVQPGRSLRLSCAASGFTFSSYGMHWVRQAPGKGLEWVAVISYDGSNKYYADSVKGRFTISRDNSKNTLYLQMNSLRAEDTAVYYCAREAGGPDYRNGYNYYDFWSGYYNYYYMDVWGKGTTVTVSS
VL: QSALTQPASVSGSPGQSITISCTGTSSDVGSYNLVSWYQQHPGKAPKLMIYEVSKRPSGVSNRFSGSKSGNTASLTISGLQAEDEADYYCCSLTSTRRWVFGGGTKLTVL
notes: also called PG9 RUA; PG9_RUA
no binding (tested: 10 ug/ml): all assays above
